Target: tTA (TetR-VP16) (/ Herpes simplex virus) (UniProt P04483)
Test: cell_activity
Details: CHO-TWIN195 without antibiotic; 8.57% with TET

Sequence of tTA (TetR-VP16) (/ Herpes simplex virus) (P04483 whole entry): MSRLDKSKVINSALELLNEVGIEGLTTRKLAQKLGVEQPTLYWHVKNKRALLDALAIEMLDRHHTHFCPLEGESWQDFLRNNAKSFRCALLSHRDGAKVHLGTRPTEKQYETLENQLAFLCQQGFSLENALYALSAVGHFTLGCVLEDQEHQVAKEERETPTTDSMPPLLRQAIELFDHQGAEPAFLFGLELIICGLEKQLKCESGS

PhCMV*-1 (tet-responsive promoter)
activity: 18.6 mU/ml SEAP

— patent publication US6287813
